To fix the notation:
B1: recombinant human GDF-5 wild type (ligand)
chain: APLATRQGKRPSKNLKARCSRKALHVNFKDMGWDDWIIAPLEYEAFHCEGLCEFPLRSHLEPTNHAVIQTLMNSMDPESTPPTACVPTRLSPISILFIDSANNVVYKQYEDMVVESCGCR
B2: human GDF-5 mutant W417F (ligand)
chain: B1 chain with W36F, A84C
B3: human GDF-5 mutant S439K (ligand)
chain: B1 chain with S58K, A84C
B4: recombinant human GDF-5 mutant I449V (ligand)
chain: B1 chain with I68V, A84C
B5: recombinant human GDF-5 mutant W414R (ligand)
chain: B1 chain with W33R, A84C
B6: human GDF-5 mutant M412V (ligand)
chain: B1 chain with M31V, A84C
B7: recombinant human GDF-5 mutant R399E (ligand)
chain: B1 chain with R18E, A84C
B8: human GDF-5 mutant W417R (ligand)
chain: B1 chain with W36R, A84C
B9: recombinant human GDF-5 mutant S439E (ligand)
chain: B1 chain with S58E, A84C
B10: human GDF-5 mutant R438K (ligand)
chain: B1 chain with R57K, A84C
B11: recombinant human GDF-5 mutant R399M (ligand)
chain: B1 chain with R18M, A84C

Substitutions are numbered along the chain they refer to. In names and notes the source's numbering stands.

The first experiment concerns the target Fc-fusion protein receptor ectodomain of BMPR-IB. Description: ratio KD(IA):KD(IB) from Biacore, relative to wild type. A general note: SPR reads the build-up and loss of mass on a sensor chip optically.
Regarding B1, the fold higher IB affinity over IA compared to WT amounted to 1 fold.

B2: the fold higher IB affinity over IA compared to WT came out at 14.7 fold.

On to B3, for which the fold higher IB affinity over IA compared to WT amounted to 19.7 fold.

In the case of B4, the fold higher IB affinity over IA compared to WT stood at 5.5 fold.

Consider B5, for which the fold higher IB affinity over IA compared to WT came to 5.5 fold.

In the case of B6, the fold higher IB affinity over IA compared to WT turned out to be 8.3 fold.

For the molecule B7, the fold higher IB affinity over IA compared to WT was 1.1 fold.

With B8, the fold higher IB affinity over IA compared to WT was 56.2 fold.

On to B9, for which the fold higher IB affinity over IA compared to WT worked out at 14.5 fold.

In the case of B10, the fold higher IB affinity over IA compared to WT is 5.9 fold.

For the molecule B11, the fold higher IB affinity over IA compared to WT worked out at 1.8 fold.

The next experiment shares this target. Description: ratio of Biacore KDs, BMPR-IA as reference; measurement 1.
For the molecule B1, the fold higher IB affinity over IA, KD(IA): KD(IB) stood at 122 fold.

Regarding B3, the fold higher IB affinity over IA, KD(IA): KD(IB) came to 2400 fold.

Turning to B5, the fold higher IB affinity over IA, KD(IA): KD(IB) turned out to be 668 fold.

Regarding B7, the fold higher IB affinity over IA, KD(IA): KD(IB) is 130 fold.

Turning to B10, the fold higher IB affinity over IA, KD(IA): KD(IB) is 717 fold.

Regarding B11, the fold higher IB affinity over IA, KD(IA): KD(IB) turned out to be 216 fold.

The next experiment has the same target. Description: ratio of Biacore KDs, BMPR-IA as reference; measurement 2.
Consider B1, for which the fold higher IB affinity over IA, KD(IA): KD(IB) is 40 fold.

For B2, the fold higher IB affinity over IA, KD(IA): KD(IB) stood at 587 fold.

For the molecule B4, the fold higher IB affinity over IA, KD(IA): KD(IB) is 219 fold.

In the case of B6, the fold higher IB affinity over IA, KD(IA): KD(IB) was determined as 333 fold.

Take B8: the fold higher IB affinity over IA, KD(IA): KD(IB) is 2650 fold.

In the case of B9, the fold higher IB affinity over IA, KD(IA): KD(IB) came out at 581 fold.

Another experiment concerns the target Fc-fusion protein receptor ectodomain of BMPR-II. Put plainly: SPR (Biacore T100), receptor ectodomain-Fc on protein G chip, equilibrium binding (KD eq).
Turning to B1, the Kd came out at 32 nM.

On to B3, for which the Kd came to 10 nM.

As to B7, the Kd is 32 nM.

B10 gave a Kd of 32 nM.

As for B11, the Kd is 32 nM.

For another experiment, the target named is Fc-fusion protein receptor ectodomain of BMPR-IA. Put plainly: SPR (Biacore T100), receptor ectodomain-Fc on protein G chip, kinetic 1:1 fit; measurement 1.
Molecule B1 came in with a Kd of 1 nM. In other words, the single-digit nanomolar range.

With B3, the equilibrium dissociation constant (Kd) amounted to 43.4 nM. This Kd lies about 43-fold higher than the previous one.

B5 displayed a Kd of 20.3 nM.

On to B7, for which the Kd was 22.5 nM.

For the molecule B10, the dissociation constant (Kd) came out at 32.5 nM.

Regarding B11, the Kd was found to be 0.54 nM.

In the next experiment the target is Fc-fusion protein receptor ectodomain of BMPR-IB. Described as above.
B1 displayed a Kd of 0.008 nM.

B3: the equilibrium dissociation constant (Kd) was 0.01 nM. This Kd and that of the molecule before are within 1.5-fold of each other.

Regarding B5, the Kd amounted to 0.03 nM.

As to B7, the Kd was determined as 0.172 nM.

On to B10, for which the Kd amounted to 0.045 nM.

In turn, B11 registered a Kd of 0.0025 nM.

A further experiment deals with Fc-fusion protein receptor ectodomain of BMPR-IA. Put plainly: SPR (Biacore T100), receptor ectodomain-Fc on protein G chip, kinetic 1:1 fit; measurement 2.
B1 had a Kd of 1.1 nM.

As to B2, the Kd was 27 nM.

For B4, the Kd was 5.7 nM. Compared with the last molecule, the Kd is about 4.7-fold lower.

In turn, B6 had a Kd of 13 nM. This Kd is about 2.3-fold higher than that of the molecule before.

Molecule B8 had a Kd of 98 nM. This Kd is about 7.5-fold higher than that of the molecule before.

As for B9, the Kd amounted to 25 nM.

A further experiment deals with Fc-fusion protein receptor ectodomain of BMPR-IB. The description is as above.
In turn, B1 yielded a Kd of 0.027 nM.

B2 had a Kd of 0.046 nM. Against the preceding molecule, the Kd is about 1.7-fold higher.

Turning to B4, the dissociation constant (Kd) came out at 0.026 nM.

Take B6: the Kd worked out at 0.039 nM.

B8 showed a Kd of 0.037 nM.

The molecule B9 came in with a Kd of 0.043 nM.

By Kd is commonly meant the concentration at which binding is half-saturated. The low end stands for a tighter complex, the high end for a looser complex.

Source of the values: patent US20140369978A1.
